According to the Immune Epitope Database (IEDB):

Assays:
Assay in all cases: IEDB peptide-MHC binding, purified MHC/competitive/radioactivity; ≥ and ≤ were set here for values at or beyond the usual limits of such assays
Details in all cases: source organism: Bordetella pertussis
HLA-B*44:03 = molecular target: HLA-B*44:03
HLA-A*02:01 = molecular target: HLA-A*02:01
HLA-B*57:01 = molecular target: HLA-B*57:01
HLA-B*35:01 = molecular target: HLA-B*35:01
HLA-B*07:02 = molecular target: HLA-B*07:02
HLA-B*53:01 = molecular target: HLA-B*53:01

## AEKVTTPAV
HLA-B*44:03
  IC50: 39.3 µM

## AELQTYLRQ
HLA-B*44:03
  IC50: 1.83 µM

## ALILAASPV
HLA-A*02:01
  IC50: 26.3 µM

## AMQGAVVHL
HLA-B*44:03
  IC50: 37.1 µM
HLA-A*02:01
  IC50: 2.65 µM

## AMTHLSPAL
HLA-A*02:01
  IC50: 0.162 µM

## ATYIADSGF
HLA-B*57:01
  IC50: 4.17 µM

## AVAAPAVGA
HLA-A*02:01
  IC50: ≥ 78.1 µM

## KTNMVVTSV
HLA-B*57:01
  IC50: 4.37 µM

## LAAQVTQRG
HLA-B*57:01
  IC50: 40.2 µM

## LEAGRRFTH
HLA-B*44:03
  IC50: 44.2 µM

## LMGPLQVNA
HLA-A*02:01
  IC50: 0.629 µM

## LPEPVKLTL
HLA-B*35:01
  IC50: 69.9 µM

## LPKPVTVKL
HLA-B*07:02
  IC50: 2.66 µM

## SLADISLGA
HLA-A*02:01
  IC50: 0.0911 µM

## YIWGLYPTY
HLA-B*53:01
  IC50: 48.1 µM
